4 molecules from US20260028400A1 (AIMED BIO, published 2026) can be followed below.

Read-outs that look alike come from different tables or passages of the source.

Assay [1] has as its target T1, ROR1 expressed on cell surface (Jeko-1 cell line, AMB-LC-0003T and AMB-LC-0002T patient-derived lung cancer … (human, UniProt Q01973 30-937)). As to the kind of experiment: cell-based or functional assay.
Assay [2] has as its target T1, ROR1 expressed on cell surface (Jeko-1 …). As to the kind of experiment: cell-based or functional assay. The source holds these as a separate data set.
The target in a further assay is T2, Ig-like (human, UniProt Q01973).
T2 construct: Ig-like domain, His tag; also called Ig-like domain; human ROR1-immunoglobulin domain
As to the kind of experiment: ELISA, IgG on coated domain, OD450. How it is done:
(§1) ELISA was performed to analyze the binding domain using the IgG antibody of the selected clone.
(§2) After washing with PBST and distilled water, binding at room temperature for 1 hour using a goat-derived HRP-conjugated anti-human antibody (Invitrogen, 31482, Goat anti-Human IgG F(ab′)₂ Secondary Antibody, HRP) and then washing again using PBST and distilled water were performed. After color development by adding TMB substrate solution (Thermo Scientific, 34029, 1-Step™ Ultra TMB-ELISA Substrate Solution), the color reaction was stopped with stop solution (Invitrogen, SS04, ELISA Stop Solution), and the absorbance was measured at OD 450 nm. The anti-ROR1 antibody clone binding to each domain was analyzed through ELISA (FIG. 3).
For orientation: In an ELISA, binding on a coated surface is turned into a signal by an enzyme label.

Assay [3] has as its target T3, human ROR1 (human, UniProt Q01973 30-403, limits assumed).
T3 construct: also called human ROR1 protein
Briefly: ELISA, IgG on coated human ROR1, OD450. How it is done:
(§3) A 96-well plate was coated at 4° C. for 16 hours with each of human ROR1 and mouse ROR1 proteins at a concentration of 2 μg/ml and then blocked using […]. […] After washing with PBST and distilled water, binding at room temperature for 1 hour using a goat-derived HRP-conjugated anti-human antibody (Invitrogen, 31482, Goat anti-Human IgG F(ab′)₂ Secondary Antibody, HRP) and then washing again using PBST and distilled water were performed. After color development by adding TMB substrate solution (Thermo Scientific, 34029, 1-Step™ Ultra TMB-ELISA Substrate Solution), the color reaction was stopped with stop solution (Invitrogen, SS04, ELISA Stop Solution), and the absorbance was measured at OD 450 nm. It was confirmed that the anti-ROR1 antibody of the present invention and the modified antibody thereof with improved biological and physical properties […] to human ROR1 and mouse ROR1 (FIG. 2).

For assay [4], the target named is T4, mouse ROR1 (mouse, UniProt Q9Z139 30-403, limits assumed).
T4 construct: also called mouse ROR1 protein
Briefly: ELISA, IgG on coated mouse ROR1, OD450. How it is done:
as §3

Assay [5] has as its target T3, human ROR1. Briefly: SPR (Biacore 3000), human ROR1 on CM5 chip, IgG injected, 1:1 Langmuir. The protocol:
(§4) To more quantitatively analyze the binding ability of the anti-ROR1 antibody to ROR1, SPR (surface plasmon resonance) was performed. A Biacore 3000 device (GE Healthcare) was used. Using the amine coupling method, human ROR1 or mouse ROR1 was diluted with 10 mM sodium acetate, pH 4.5 and immobilized on a CM5 sensor chip (GE Healthcare) at 300 response units (RU). The activated portion remaining on the surface of the sensor chip was deactivated by adding 1 M ethanolamine-HCl (pH 8.5).
For orientation: Surface plasmon resonance follows binding to a sensor surface in real time, without labels.

Assay [6] deals with T4, mouse ROR1. As to the kind of experiment: SPR (Biacore 3000), mouse ROR1 on CM5 chip, IgG injected, 1:1 Langmuir. How it is done: as §4
The next assay addresses T5, FZD (human, UniProt Q01973).
T5 construct: frizzled domain, His tag; also called Frizzled domain; human ROR1-frizzled domain
As to the kind of experiment: ELISA, IgG on coated domain, OD450. How it is done: as §1, §2

The target in the next assay is T6, FZD+KRD (human, UniProt Q01973).
T6 construct: frizzled plus kringle domains, His tag; also called FK domain; human ROR1-frizzled-kringle domain
As to the kind of experiment: ELISA, IgG on coated domain, OD450. The protocol:
as §1, §2

T4 sequence (Q9Z139 30-403 limits assumed): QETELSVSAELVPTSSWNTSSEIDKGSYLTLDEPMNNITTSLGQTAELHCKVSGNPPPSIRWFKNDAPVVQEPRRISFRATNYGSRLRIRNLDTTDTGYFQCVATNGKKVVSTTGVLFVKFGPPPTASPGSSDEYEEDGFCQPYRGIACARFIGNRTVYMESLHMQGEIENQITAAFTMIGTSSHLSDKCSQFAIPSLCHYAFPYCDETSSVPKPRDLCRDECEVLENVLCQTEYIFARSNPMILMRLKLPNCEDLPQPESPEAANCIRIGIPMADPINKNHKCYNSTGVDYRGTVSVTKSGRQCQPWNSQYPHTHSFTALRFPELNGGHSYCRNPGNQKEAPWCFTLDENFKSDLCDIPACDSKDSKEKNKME
T1 sequence (Q01973 30-937): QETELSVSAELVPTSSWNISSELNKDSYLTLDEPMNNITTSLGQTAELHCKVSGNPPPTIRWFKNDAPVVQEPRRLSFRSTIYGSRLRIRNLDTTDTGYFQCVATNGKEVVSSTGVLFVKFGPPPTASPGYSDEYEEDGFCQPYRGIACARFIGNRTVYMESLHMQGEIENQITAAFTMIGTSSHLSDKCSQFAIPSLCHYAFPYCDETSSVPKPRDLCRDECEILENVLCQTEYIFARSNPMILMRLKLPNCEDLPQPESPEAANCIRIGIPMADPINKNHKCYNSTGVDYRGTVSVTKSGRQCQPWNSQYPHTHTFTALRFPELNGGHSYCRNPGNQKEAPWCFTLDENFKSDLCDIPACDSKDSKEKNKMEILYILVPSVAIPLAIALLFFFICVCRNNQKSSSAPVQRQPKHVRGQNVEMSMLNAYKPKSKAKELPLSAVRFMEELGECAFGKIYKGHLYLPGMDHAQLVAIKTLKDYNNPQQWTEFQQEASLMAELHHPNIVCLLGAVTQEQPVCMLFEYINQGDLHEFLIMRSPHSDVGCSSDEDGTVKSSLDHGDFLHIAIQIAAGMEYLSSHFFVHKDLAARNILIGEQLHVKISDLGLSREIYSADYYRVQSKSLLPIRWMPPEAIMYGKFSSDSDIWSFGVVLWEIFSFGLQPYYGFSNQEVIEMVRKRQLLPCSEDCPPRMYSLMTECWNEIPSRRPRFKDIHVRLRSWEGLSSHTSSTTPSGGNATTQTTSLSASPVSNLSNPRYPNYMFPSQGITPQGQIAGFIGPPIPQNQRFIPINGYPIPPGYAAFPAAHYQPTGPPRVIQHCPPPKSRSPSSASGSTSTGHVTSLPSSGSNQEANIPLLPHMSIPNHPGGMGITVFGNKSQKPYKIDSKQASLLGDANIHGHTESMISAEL
T3 sequence (Q01973 30-403 limits assumed): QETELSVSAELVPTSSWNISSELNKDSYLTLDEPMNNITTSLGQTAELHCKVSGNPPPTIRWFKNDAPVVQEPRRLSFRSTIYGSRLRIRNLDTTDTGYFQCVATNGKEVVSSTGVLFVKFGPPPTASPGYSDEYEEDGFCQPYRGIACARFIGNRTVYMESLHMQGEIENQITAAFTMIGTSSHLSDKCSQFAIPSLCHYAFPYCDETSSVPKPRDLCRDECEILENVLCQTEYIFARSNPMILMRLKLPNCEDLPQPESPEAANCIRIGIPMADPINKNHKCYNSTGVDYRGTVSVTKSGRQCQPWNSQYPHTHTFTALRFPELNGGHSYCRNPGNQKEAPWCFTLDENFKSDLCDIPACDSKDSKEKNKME
T2 sequence (Q01973 39-151 limits assumed): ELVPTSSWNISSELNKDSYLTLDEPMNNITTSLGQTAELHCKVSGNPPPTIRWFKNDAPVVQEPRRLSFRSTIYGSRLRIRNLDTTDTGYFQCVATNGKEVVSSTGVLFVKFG
T6 sequence (Q01973 165-395 limits assumed): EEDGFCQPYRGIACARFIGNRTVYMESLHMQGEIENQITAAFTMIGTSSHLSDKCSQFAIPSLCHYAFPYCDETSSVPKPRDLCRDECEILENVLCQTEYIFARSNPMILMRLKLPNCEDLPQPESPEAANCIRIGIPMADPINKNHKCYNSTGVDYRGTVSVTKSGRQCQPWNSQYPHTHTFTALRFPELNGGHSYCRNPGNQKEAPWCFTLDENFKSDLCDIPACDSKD
T5 sequence (Q01973 165-305 limits assumed): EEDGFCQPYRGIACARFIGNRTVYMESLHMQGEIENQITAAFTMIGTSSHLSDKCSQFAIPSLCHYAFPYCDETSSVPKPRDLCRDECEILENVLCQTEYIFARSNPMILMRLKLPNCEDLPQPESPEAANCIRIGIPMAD

B1: P015044-vc-PAB-MMAE (antibody, IgG1, V domains shown)
VH: EVQLLESGGGLVQPGGSLRLSCAASGFTFSNYAMHWVRQAPGKGLEWVSIIYPDDDTRYNPSFRGRFTISRDNSKNTLYLQMNSLRAEDTAVYYCARDLLYAGDYWGQGTLVTVSS
VL: QSVLTQPPSASGTPGQRVTISCGGNNIESKAVHWYQQLPGTAPKLLIYANNKRPSGVPDRFSGSKSGTSASLAISGLRSEDEADYYCQSYDSNKVVFGGGTKLTVL
modifications: maleimidocaproyl-valine-citrulline-p-aminobenzyloxycarbonyl monomethyl auristatin E on cysteine sulfhydryls of reduced disulfides; positions not given; average 3.0 drugs per antibody
On to B1, for which, in assay [1], the “Fold Change of IC50, AMB-LC-0002T/AMB-LC-0003T” value stood at 22.7 fold; the “IC50 (nM), spheroid volume after 6 days of treatment, AMB-LC-0003T (high ROR1 expression)” value worked out at 5.38 nM; the “IC50 (nM), spheroid volume, AMB-LC-0002T (very low ROR1 expression)” value turned out to be 122 nM. Moreover, in assay [2], the “Fold Change of IC50, AMB-LC-0002T/AMB-LC-0003T” value came to 39.7 fold; the “IC50 (nM), spheroid volume, AMB-LC-0002T (low ROR1 expression)” value was 261 nM; the “IC50 (nM), spheroid volume, AMB-LC-0003T (high ROR1 expression)” value came to 6.59 nM.

B2: P015002 (antibody, V domains shown)
VH: EVQLLESGGGLVQPGGSLRLSCAASGFTFSDYSMSWVRQAPGKGLEWVSGISHNGGSTYYADSVKGRFTISRDNSKNTLYLQMSSLRAEDTAVYYCARDVSRWSKTRWSYDNAMDVWGQGTLVTVSS
VL: QSVLTQPPSASGTPGQRVTISCTGSSSNIGSNYVSWYRQLPGTAPKLLIYSDSNRPSGVPDRFSGSKSGTSASLAISGLRSEDEADYYCATWDASLSAYVFGGGTKLTVL
By EC50 (read off the curve) is commonly meant the concentration that produces a half-maximal response. For orientation: Kd means the constant that tells how readily two partners part at equilibrium. Read a high Kd as lower affinity. As a reminder, the koff is the rate constant with which the complex falls apart. Low readings indicate a long-lived complex, high ones a short-lived complex. One may read the kon as the second-order rate constant of association. Read a high kon as faster complex formation. As to B2, the binding result in the assay with Ig-like is on record as “no binding (tested: 300 nM)”. Further, the half-maximal effective concentration (EC50 (read off the curve)) with human ROR1 [3] is about 2 nM; with mouse ROR1 [4] it was about 3 nM. Moreover, the equilibrium dissociation constant (Kd) with human ROR1 [5] came out at 3.71 nM; in the assay with mouse ROR1 [6], 6 nM. For the same molecule, the koff with human ROR1 [5] was determined as 0.000202 s⁻¹; in the assay with mouse ROR1 [6], 0.000278 s⁻¹. The results for the on-rate (kon) in the assay with human ROR1 [5] and with mouse ROR1 [6] were 54300 M⁻¹ s⁻¹ and 46400 M⁻¹ s⁻¹, respectively.

B3: P015001 (antibody, V domains shown)
VH: EVQLLESGGGLAQPGGSLRLSCAASGFTFSNYDMSWVRQAPGKGPEWVSGIYSGNSNTYYADSVKGRFTISRDNSKNTLYLQMNSLRAEDTAVYYCARDLQYTEWAGFDYWGQGTLVTVSS
VL: QSVLTQPPSASGTPGQRVTISCSGSSSNIGSNDVTWYQQLPGTAPKLLIYDDSKRPSGVPDRFSGSKSGTSASLAISGLRSEDEADYYCAAWDDSLSGYVFGGGTKLTVL
In the case of B3, in the assay with FZD, the binding result was “no binding (tested: 300 nM)”. Further, the binding result with FZD+KRD is “no binding (tested: 300 nM)”. Further, the “EC50 (read off the curve)” value in the assay with human ROR1 [3] is about 1 nM. In the assay with human ROR1 [5], this molecule gave a Kd of 0.63 nM, a koff of 0.00264 s⁻¹ and a kon of 4.18e+06 M⁻¹ s⁻¹. Besides, in the assay with mouse ROR1 [6], binding was put at a Kd of 230 nM, the off-rate constant (koff) is 0.129 s⁻¹ and the kon amounted to 564000 M⁻¹ s⁻¹.

B4: P015005 (antibody, V domains shown)
VH: EVQLLESGGGLVQPGGSLRLSCAASGFTFSDYSMSWVRQAPGKGLEWVSGISHNGGSTYYADSVKGRFTISRDNSKNTLYLQMSSLRAEDTAVYYCARDVSRWSKTRWSYDNAMDVWGQGTLVTVSS
VL: QSVLTQPPSASGTPGQRVTISCSGSSSNIGSNYVNWYQQLPGTAPKLLIYSDSHRPSGVPDRFSGSKSGTSASLAISGLRSEDEADYYCGSWDSSLNAYVLGGGTKLTVL
Take B4: the binding result with Ig-like is “no binding (tested: 300 nM)”. Further, the half-maximal effective concentration (EC50 (read off the curve)) with FZD+KRD is about 6 nM; with human ROR1 [3], about 1 nM; with mouse ROR1 [4] it was about 1 nM. For the same molecule, the dissociation constant (Kd) with human ROR1 [5] is 0.4 nM; with mouse ROR1 [6], 0.833 nM. Moreover, the off-rate (koff) with human ROR1 [5] was determined as 6.78e-05 s⁻¹; with mouse ROR1 [6] it was 0.0001 s⁻¹. The kon worked out at 169000 M⁻¹ s⁻¹ in the assay with human ROR1 [5] and 120000 M⁻¹ s⁻¹ in the assay with mouse ROR1 [6].
